Measured values: the nanobody polyreactivity screen of Harvey et al. (2022)

test: yeast display, Sf9 membrane polyspecificity reagent, FACS + sequencing; frameworks hold sequencing errors
Summary of the method: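 A synthetic nanobody library was expressed on Saccharomyces cerevisiae BJ5465 by galactose induction for 36–48 hours. The library was stained for 1 hour at 4 °C with 10% biotinylated, detergent-solubilized Sf9 membrane reagent and enriched with streptavidin microbeads before FACS. Low and high (top ~1%) gates were set on anti-HA fluorescence for expression and streptavidin fluorescence for reagent binding, and each polyreactivity label reflects the gate of origin.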

For “QVQLVESGGGLVQAGGSLRLSCAASGIIFGVYAMGWYRQAPGKERELVASIRYSSVRTYYADSVKGRFTISRDNAKNTVYLQMNSLKPEDTAVYYCAKYYVWPRYGYWGQGTQVTVSS”, which “polyreactivity (PSR sort gate)” value is on record?
Its value is “high polyreactivity”.

Which “polyreactivity (PSR sort gate)” value does the source give for “QVQLVESGGGLVQAGGSLRLSCAASGIIFAGNAMGWYRQAPGKERELVAAISSNGGSTYYADSVKGRFTISRDNAKNYVYLQMNSLKPEDTAVYYCAADRVYWGRVQGYYWGQGTQVTVSS” here?
The value was “low polyreactivity”.

Which “polyreactivity (PSR sort gate)” value does the source give for “QVQLVESGGGLVQAGGSLRLTCAASGSTFGYYAMGWNRQATGKERELVASITSDGSTNYADSVKGRFTISRDNAKNTVYLQMNSLKPEDTAVYYCAAYVWRYWHEYDYWGQGTQVTVSS” here?
Its value is “low polyreactivity”.

Which “polyreactivity (PSR sort gate)” value does the source give for “QVQLVESVGGLVQAGGSLRLSCAASGRTFTYNSMGSYRQAPGKERELVAAITRRGGSTYYADSVKGRFTISRDNAKNTVYLQMNSLKPEDTAVYYCAATGYLRTYDYWGQGTQVTVSS” here?
Its value is “high polyreactivity”.

With “QVQLVESGGGLVQAGGSLRLSCAASGRIFDGYAMGWYRQAPGKERELVAAISNGGGSTYYADSVKGRFTISRDNAKNTVYLQMNSLKPEDTAVYYCAARIFSRYTRNYWGQGTQVTVSS” as the sequence, how does the “polyreactivity (PSR sort gate)” value read?
Its value is “high polyreactivity”.

Which “polyreactivity (PSR sort gate)” value does the source give for “QVQLVESGGGLVQAGGSLRLSCAASGFTLWLYAMGWSRQAPGKERALVATISYRGDSTYYADSVKGRFTISRDNAKNTVYLQMNSLNPEDTAVYYCARRYTHTGRYYYWGQGTQVTVSS” here?
The value was “high polyreactivity”.

For “QVQLVESGGGLVKAGGSLRLSCAASGSTSQVNDMGWYRQAPGTERELVGAISSTGDRTYYADSVKGRFTISRDNAKNNVYLQMNSLKPDDTAVYYCANDPFPFPCGDYWGQGTQVTVSS”, which “polyreactivity (PSR sort gate)” value is on record?
The value was “low polyreactivity”.

For “QVQLVESGGGLVQAGGSLRLSCAASGNIFAYNAMGWYRQAPGKERELVASIRYSGGSTYYADSVKGRFTISRDNAKNTVYLQMNSLKPEDTAVYYCAKRGYSSYRTYNYWGQGTQVTVSS”, which “polyreactivity (PSR sort gate)” value is on record?
The value was “high polyreactivity”.

With “QVQLVESGGGLVQAGGSLRLSCAATGITFYINAMGSYRQAPGKERELVAVIDSRGSSTFYADSVKGRFTISLDYAKNTVYLQMNSLKPEDTAVYYCAVEGYPGRYRDPGDLYYYWGQGTQVTVSS” as the sequence, how does the “polyreactivity (PSR sort gate)” value read?
The value was “low polyreactivity”.

Which “polyreactivity (PSR sort gate)” value does the source give for “QVQLVESGGGLVQAGGSLRLSCAASGSTVEYNAMGWYRQAPGKERELVASSTNYADSVKGRFTISRDNAKNTVYLQMNSLKPEDTAVYYCAASSLPHDSYRHSYLYEYWGQGTQVTVSS” here?
Its value is “low polyreactivity”.

For “QVQLVESGGGLVQAGGSLRLSCAASGFTSSNNAMGWYRQAPGKERELFAAISSSGGRTYYADSVKGRFTISRDNAKNTVYLQMNSLQPEDTAVYFCAATGYVGGIYGHYPRGYWGQGTQVTVSS”, which “polyreactivity (PSR sort gate)” value is on record?
The value was “high polyreactivity”.

With “QVQLVESGGGLVQAGGSLRLSCAASGSIFDLNAMGWYRQAPGKERELVAAISSVGGTYYADSVKGRFTISRDNAKNTGYLQMNSLKPEDTAVYYCNRVTRWTYNYWGQGTQVTVSS” as the sequence, how does the “polyreactivity (PSR sort gate)” value read?
Its value is “high polyreactivity”.

With “QVQLVESGGGLVQAGGSLRLSCAASGITFAKYAMGWYRQAPGKESELVAAISSSGGRTYYADSVKGRFTISRDNAKNTVYLQMNSLKPEDTAVYYCAADFSGPFDYWGLGTQVTVSS” as the sequence, how does the “polyreactivity (PSR sort gate)” value read?
The value was “high polyreactivity”.

For “QVQLVESGGGLVQAGGSLRLSCAASGSIFKFYTMGWYRQAPGKERELVATISRSGGGTFYADSVKGRFTISGDNSKNTVYLQMNSLKPEDTAVYYCSADPAFTHYPFGYGYWGQGTQVTVSS”, which “polyreactivity (PSR sort gate)” value is on record?
The value was “low polyreactivity”.

With “QVQLVESAGGLVQAGGSLRLSFAASGSIFYSYAMGSYRKAAGKDRELVADITSSGGSTYYADSVKGRFTISRDNAKNTDYLQMNSLKREDTAVYYCAASSPAFYGLRYNYWGQGTQVTVSS” as the sequence, how does the “polyreactivity (PSR sort gate)” value read?
The value was “low polyreactivity”.

With “QVQLVESGGGLVQAGGSLRLTCAASGNTFGNYAMGWYRQAPGKERELVASISWNVGSTYYADSVKGRFTISRDNAKNTVYLQMNSLKPEDTAVYYCARGYDRPRVATFHRFDYWGQGTQVTVSS” as the sequence, how does the “polyreactivity (PSR sort gate)” value read?
Its value is “low polyreactivity”.

Which “polyreactivity (PSR sort gate)” value does the source give for “QVQHVESGGGLVQAGGSLRLSCAASGFIFYDKAMGRYRTAPGKERELVAGITYRTGSTFYADSVKGRFTISRDNAKNTVYLQMISLKPEDTAVFYCAAVRRISWYTPVNTRRYYYWGQGTQVTVSS” here?
The value was “high polyreactivity”.
